Data on three molecules can be found in PMC5580921, “Homeodomain-like DNA binding proteins control the haploid-to-diploid transition in Dictyostelium”.

One data set has as its target T1, MatA K72A/K76A (Dictyostelium discoideum, UniProt D3UFF3 1-107, K72A;K76A).
T1 sequence: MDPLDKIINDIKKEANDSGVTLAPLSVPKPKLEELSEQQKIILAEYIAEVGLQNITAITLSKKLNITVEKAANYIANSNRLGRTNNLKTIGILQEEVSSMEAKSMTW
In words: EMSA; EMSA: 10 mM Tris-HCl pH 7.4, 1 mM EDTA, 20 mM NaCl, 30 min room temperature, 6% polyacrylamide gel in 1x tris-borate. NMR: 25 mM phosphate pH 6, 50 mM NaCl, 50. To be noted: protein: recombinant; tags: His6-lipoyl domain tag removed by TEV; label: none (SYBR Gold stain); blunt. (In general: In EMSA bound probe runs differently from free probe, usually more slowly.)

In data set [1] the target is T2, MatA (Dictyostelium discoideum, UniProt Q54HW9 1-107).
T2 sequence: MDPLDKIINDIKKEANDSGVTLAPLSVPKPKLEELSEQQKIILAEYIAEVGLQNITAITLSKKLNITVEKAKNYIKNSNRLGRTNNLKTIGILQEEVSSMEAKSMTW
Briefly: EMSA; smear; nonspecific, low affinity; EMSA: 10 mM Tris-HCl pH 7.4, 1 mM EDTA, 20 mM NaCl, 30 min room temperature, 6% polyacrylamide gel in 1x tris-borate. NMR: 25 mM phosphate pH 6, 50 mM NaCl, 50. The note with it: protein: recombinant; tags: His6-lipoyl domain tag removed by TEV (15N-labeled for NMR); label: none (SYBR Gold stain); blunt.

Data set [2] has as its target T3, MatB S71A (Dictyostelium discoideum, UniProt D3UFE5 1-107, S71A).
T3 sequence: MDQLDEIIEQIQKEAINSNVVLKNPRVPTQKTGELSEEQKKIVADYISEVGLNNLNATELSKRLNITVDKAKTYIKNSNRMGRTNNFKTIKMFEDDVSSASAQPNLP
In words: EMSA; similar to wild type; EMSA: 10 mM Tris-HCl pH 7.4, 1 mM EDTA, 20 mM NaCl, 30 min room temperature, 6% polyacrylamide gel in 1x tris-borate. NMR: 25 mM phosphate pH 6, 50 mM NaCl, 50. To be noted: protein: recombinant; tags: His6-lipoyl domain tag removed by TEV (15N-labeled for NMR); label: none (SYBR Gold stain); blunt.

A further data set deals with T4, MatB (Dictyostelium discoideum, UniProt D3UFE5 1-107).
T4 sequence: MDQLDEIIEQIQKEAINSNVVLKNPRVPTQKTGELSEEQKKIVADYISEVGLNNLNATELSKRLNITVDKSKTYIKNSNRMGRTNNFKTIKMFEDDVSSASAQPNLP
In words: EMSA; nonspecific; EMSA: 10 mM Tris-HCl pH 7.4, 1 mM EDTA, 20 mM NaCl, 30 min room temperature, 6% polyacrylamide gel in 1x tris-borate. NMR: 25 mM phosphate pH 6, 50 mM NaCl, 50. To be noted: protein: recombinant; tags: His6-lipoyl domain tag removed by TEV; label: none (SYBR Gold stain); blunt.

Data set [3] has as its target T2, MatA. Briefly: NMR; 58-bp titration 40-120 uM DNA, 20 uM MatA; fast exchange, very weak, unsaturated; EMSA: 10 mM Tris-HCl pH 7.4, 1 mM EDTA, 20 mM NaCl, 30 min room temperature, 6% polyacrylamide gel in 1x tris-borate. NMR: 25 mM phosphate pH 6, 50 mM NaCl, 50. To be noted: protein: recombinant; tags: His6-lipoyl domain tag removed by TEV (15N-labeled for NMR); label: none; blunt.

For data set [4], the target named is T2, MatA. In words: NMR; 80 uM DNA, 20 uM MatA; CSPs at L32, L35, E69, I75, K76, N77; EMSA: 10 mM Tris-HCl pH 7.4, 1 mM EDTA, 20 mM NaCl, 30 min room temperature, 6% polyacrylamide gel in 1x tris-borate. NMR: 25 mM phosphate pH 6, 50 mM NaCl, 50. To be noted: protein: recombinant; tags: His6-lipoyl domain tag removed by TEV (15N-labeled for NMR); label: none; blunt.

For data set [5], the target named is T3, MatB S71A. Briefly: NMR; 80 uM DNA, 20 uM protein, 1 C; core signals lost by intermediate exchange broadening; EMSA: 10 mM Tris-HCl pH 7.4, 1 mM EDTA, 20 mM NaCl, 30 min room temperature, 6% polyacrylamide gel in 1x tris-borate. NMR: 25 mM phosphate pH 6, 50 mM NaCl, 50. To be noted: protein: recombinant; tags: His6-lipoyl domain tag removed by TEV (15N-labeled for NMR); label: none; blunt.

B1: EMSA dsDNA with MATalpha2 operator (dsDNA)
DNA 1: CCGAAACGTTTGGTGGCGCATGTAATTCATTTACACGCGCGAGGGCGTGCAAGATTC
DNA 2: GAATCTTGCACGCCCTCGCGCGTGTAAATGAATTACATGCGCCACCAAACGTTTCGG
Turning to B1, the binding result in the data set with MatA K72A/K76A is on record as “no binding”; with MatA [1] it was “binds”; with MatB S71A [2], “binds”; with MatB, “binds”.

B2: 58-bp DNA (dsDNA)
DNA 1: GAATCTTGCACGCCCTCGCTCAAGCCTTCGTCACTGGTCCCGCCACCAAACGTTTCGG
DNA 2: CCGAAACGTTTGGTGGCGGGACCAGTGACGAAGGCTTGAGCGAGGGCGTGCAAGATTC
In the case of B2, in the data set with MatA [3], the binding result is recorded as “binds”.

B3: 29-bp DNA (dsDNA)
DNA 1: CCGAAACGTTTGGTGGCGGGACCAGTGAC
DNA 2: GTCACTGGTCCCGCCACCAAACGTTTCGG
In the case of B3, the binding result with MatA [4] and with MatB S71A [5] was “binds” each time.
